From the supplement of paper PMC10567573

B1: ZNF511 (parent)
chain: YEHHYHTLHGNVCSFCKRAFPSGH

Variants of: B1
Experiment: protein stability index of a GFP-peptide fusion (GPS, HEK-293T) (PSI 1-6); higher = more stable
Conditions: c terminus: a fixed tail appended
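Also: lentivirally expressed fusions sorted by FACS into six bins by GFP to DsRed ratio, PSI derived from sequencing read proportions per bin multiplied by bin number.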

Going from YEHHYKTLHGNVCSFCKRAFPSGH to YEHHYQTLHGNVCSFCKRAFPSGH, the protein stability index rises from 1.53 to 1.88.

First: YEHHYDTLHGNVCSFCKRAFPSGH
Second: YEHHYGTLHGNVCSFCKRAFPSGH
The protein stability index of the first is higher: 2.34 for the first, 1.69 for the second.

First: YEHHYETLHGNVCSFCKRAFPSGH
Second: YEHHYRTLHGNVCSFCKRAFPSGH
The protein stability index of the first is higher: 2.4 for the first, 1.38 for the second.

Going from YEHHYCTLHGNVCSFCKRAFPSGH to YEHHYLTLHGNVCSFCKRAFPSGH, the protein stability index falls from 2.6 to 1.72.

Compared with YEHHYMTLHGNVCSFCKRAFPSGH, YEHHYYTLHGNVCSFCKRAFPSGH is higher in protein stability index: 1.6 for the first, 1.83 for the second.

Going from YEHHYWTLHGNVCSFCKRAFPSGH to YEHHYNTLHGNVCSFCKRAFPSGH, the protein stability index rises from 1.66 to 2.33.

Compared with YEHHYPTLHGNVCSFCKRAFPSGH, YEHHYITLHGNVCSFCKRAFPSGH is higher in protein stability index: 1.68 for the first, 2.15 for the second.

Going from YEHHYSTLHGNVCSFCKRAFPSGH to YEHHYVTLHGNVCSFCKRAFPSGH, the protein stability index rises from 1.92 to 2.51.

Compared with YEHHYFTLHGNVCSFCKRAFPSGH, YEHHYTTLHGNVCSFCKRAFPSGH is higher in protein stability index: 1.48 for the first, 1.94 for the second.

Compared with YEHHYATLHGNVCSFCKRAFPSGH, YEHHHHTLHGNVCSFCKRAFPSGH is higher in protein stability index: 1.88 for the first, 3.22 for the second.

Compared with YEHHKHTLHGNVCSFCKRAFPSGH, YEHHRHTLHGNVCSFCKRAFPSGH is higher in protein stability index: 2.54 for the first, 2.62 for the second.

Compared with YEHHLHTLHGNVCSFCKRAFPSGH, YEHHGHTLHGNVCSFCKRAFPSGH is higher in protein stability index: 2.48 for the first, 3.54 for the second.

First: YEHHMHTLHGNVCSFCKRAFPSGH
Second: YEHHQHTLHGNVCSFCKRAFPSGH
The protein stability index of the first is lower: 2.39 for the first, 3.28 for the second.

Going from YEHHVHTLHGNVCSFCKRAFPSGH to YEHHDHTLHGNVCSFCKRAFPSGH, the protein stability index rises from 3.47 to 3.51.

Compared with YEHHPHTLHGNVCSFCKRAFPSGH, YEHHSHTLHGNVCSFCKRAFPSGH is lower in protein stability index: 3.04 for the first, 3.01 for the second.

First: YEHHAHTLHGNVCSFCKRAFPSGH
Second: YEHHCHTLHGNVCSFCKRAFPSGH
The protein stability index of the first is lower: 2.81 for the first, 3.95 for the second.

Going from YEHHTHTLHGNVCSFCKRAFPSGH to YEHHWHTLHGNVCSFCKRAFPSGH, the protein stability index falls from 3.67 to 2.32.

First: YEHHIHTLHGNVCSFCKRAFPSGH
Second: YEHHEHTLHGNVCSFCKRAFPSGH
The protein stability index of the first is lower: 2.68 for the first, 3.85 for the second.

Compared with YEHHFHTLHGNVCSFCKRAFPSGH, YEHHNHTLHGNVCSFCKRAFPSGH is higher in protein stability index: 2.29 for the first, 3.01 for the second.

Compared with YEHHYHTLTGNVCSFCKRAFPSGH, YEHHYHTLVGNVCSFCKRAFPSGH is higher in protein stability index: 2.16 for the first, 2.57 for the second.

First: YEHHYHTLCGNVCSFCKRAFPSGH
Second: YEHHYHTLWGNVCSFCKRAFPSGH
The protein stability index of the first is higher: 2.18 for the first, 1.83 for the second.

Compared with YEHHYHTLEGNVCSFCKRAFPSGH, YEHHYHTLIGNVCSFCKRAFPSGH is higher in protein stability index: 1.93 for the first, 2.28 for the second.

Compared with YEHHYHTLPGNVCSFCKRAFPSGH, YEHHYHTLRGNVCSFCKRAFPSGH is lower in protein stability index: 2.72 for the first, 2.48 for the second.

Compared with YEHHYHTLAGNVCSFCKRAFPSGH, YEHHYHTLLGNVCSFCKRAFPSGH is lower in protein stability index: 1.93 for the first, 1.5 for the second.

First: YEHHYHTLYGNVCSFCKRAFPSGH
Second: YEHHYHTLSGNVCSFCKRAFPSGH
The protein stability index of the first is higher: 2 for the first, 1.72 for the second.

Compared with YEHHYHTLKGNVCSFCKRAFPSGH, YEHHYHTLFGNVCSFCKRAFPSGH is lower in protein stability index: 2.77 for the first, 1.68 for the second.

First: YEHHYHTLDGNVCSFCKRAFPSGH
Second: YEHHYHTLNGNVCSFCKRAFPSGH
The protein stability index of the first is lower: 1.97 for the first, 2.49 for the second.

Compared with YEHHYHTLQGNVCSFCKRAFPSGH, YEHHYHTLMGNVCSFCKRAFPSGH is lower in protein stability index: 2.19 for the first, 2.06 for the second.

Compared with YEHHYHTLGGNVCSFCKRAFPSGH, YEHHYHTAHGNVCSFCKRAFPSGH is higher in protein stability index: 2.24 for the first, 2.47 for the second.

Compared with YEHHYHTWHGNVCSFCKRAFPSGH, YEHHYHTHHGNVCSFCKRAFPSGH is higher in protein stability index: 2.3 for the first, 2.92 for the second.

First: YEHHYHTPHGNVCSFCKRAFPSGH
Second: YEHHYHTTHGNVCSFCKRAFPSGH
The protein stability index of the first is lower: 2.43 for the first, 2.67 for the second.

First: YEHHYHTEHGNVCSFCKRAFPSGH
Second: YEHHYHTNHGNVCSFCKRAFPSGH
The protein stability index of the first is lower: 2.65 for the first, 2.67 for the second.

Compared with YEHHYHTMHGNVCSFCKRAFPSGH, YEHHYHTYHGNVCSFCKRAFPSGH is higher in protein stability index: 2.12 for the first, 2.6 for the second.

Going from YEHHYHTFHGNVCSFCKRAFPSGH to YEHHYHTIHGNVCSFCKRAFPSGH, the protein stability index falls from 2.62 to 2.44.

First: YEHHYHTRHGNVCSFCKRAFPSGH
Second: YEHHYHTCHGNVCSFCKRAFPSGH
The protein stability index of the first is lower: 2.4 for the first, 3.62 for the second.

Compared with YEHHYHTKHGNVCSFCKRAFPSGH, YEHHYHTDHGNVCSFCKRAFPSGH is higher in protein stability index: 2.26 for the first, 2.57 for the second.

Going from YEHHYHTSHGNVCSFCKRAFPSGH to YEHHYHTVHGNVCSFCKRAFPSGH, the protein stability index rises from 2.23 to 2.74.

Compared with YEHHYHTQHGNVCSFCKRAFPSGH, YEHHYHTGHGNVCSFCKRAFPSGH is lower in protein stability index: 2.62 for the first, 2.52 for the second.

Going from YVHHYHTLHGNVCSFCKRAFPSGH to YFHHYHTLHGNVCSFCKRAFPSGH, the protein stability index rises from 2.89 to 3.12.

Compared with YLHHYHTLHGNVCSFCKRAFPSGH, YTHHYHTLHGNVCSFCKRAFPSGH is higher in protein stability index: 1.65 for the first, 3.14 for the second.

First: YHHHYHTLHGNVCSFCKRAFPSGH
Second: YQHHYHTLHGNVCSFCKRAFPSGH
The protein stability index of the first is higher: 2.66 for the first, 2.43 for the second.

First: YPHHYHTLHGNVCSFCKRAFPSGH
Second: YSHHYHTLHGNVCSFCKRAFPSGH
The protein stability index of the first is lower: 1.54 for the first, 3.32 for the second.

Compared with YAHHYHTLHGNVCSFCKRAFPSGH, YMHHYHTLHGNVCSFCKRAFPSGH is lower in protein stability index: 3.31 for the first, 2.08 for the second.

YGHHYHTLHGNVCSFCKRAFPSGH and YDHHYHTLHGNVCSFCKRAFPSGH are the same in protein stability index: 2.9 for the first, 2.9 for the second.

Compared with YNHHYHTLHGNVCSFCKRAFPSGH, YKHHYHTLHGNVCSFCKRAFPSGH is higher in protein stability index: 1.37 for the first, 1.76 for the second.

Compared with YCHHYHTLHGNVCSFCKRAFPSGH, YIHHYHTLHGNVCSFCKRAFPSGH is higher in protein stability index: 2.15 for the first, 2.34 for the second.

Compared with YWHHYHTLHGNVCSFCKRAFPSGH, YRHHYHTLHGNVCSFCKRAFPSGH is lower in protein stability index: 2.85 for the first, 1.8 for the second.
